Experiment [1] has as its target His-tagged TriC transporter (Pseudomonas aeruginosa). Description: SEC. On the technique in general: In gel filtration, larger molecules generally elute earlier.
Experiment [2] has the same target. Put plainly: cryo-EM structure.

Take “His-tagged TriC transporter (natural protein)”: the stoichiometry N in experiment [1] and in experiment [2] was 3 throughout.

In the case of “fused TriAB dimer (TriA and TriB on one polypeptide)”, the stoichiometry N in experiment [1] was found to be 1.

What is called stoichiometry N is a count of units in the complex or per binding partner.

For the origin of these results see paper PMC7935746.
